{"source": "paper PMC9896067", "about": "“Peptide Supramolecular Assembly‐Instructed In Situ Self‐Aggregation for Stratified Targeting Sonodynamic Therapy Enhancement of AIE Luminogens” (Advanced Science, 2022)", "key": {"[1]": {"system": "4T1 cells", "assay": "CCK‐8 viability of 4T1 cells with or without US", "assay_type": "cell-based, murine", "conditions": "for survival of 4T1 cells: without US irradiation, various concentrations", "method": "To determine the antitumor efficacy in vitro, the 4T1 cells were divided into the following 6 groups: i) control, ii) control + US, iii) BP + US, iv) PAHN‐3 + US, v) PAHN‐2 + US, and vi) PAHN‐1 + US. Then, the medium were replaced with the fresh medium containing corresponding formulations at different concentrations (30, 60, 120 µM). After 4 h of treatment, the cells were rinsed with PBS and then treated by US at an intensity of 3 W cm^−2 for 4 min. After that, the culture medium was replaced by a fresh serum‐free medium for another 4 h incubation. Finally, a standard CCK‐8 assay was used to evaluate the viability of the cells. The therapeutic effect was also detected by cellular apoptosis assay. In brief, the 4T1 cells were divided into the 6 groups as described above. Next, cells were treated with either BP, PAHN‐3, PAHN‐2, PAHN‐1 at a concentration of 120 µM, or PBS, followed by US irradiation. Finally, these cells were costained by a dye solution of calcein AM (2 µM) and PI (2 µM) or collected for apoptosis analysis using flow cytometry."}, "[2]": {"system": "4T1 tumor‐bearing mice", "assay": "In vivo and ex vivo fluorescence imaging / biodistribution", "conditions": "DIR‐labelled, i.v. 2.4 µmol kg^−1, n = 3; for ex vivo distribution in tumor and major organs: 48 h postinjection", "method": "For the fluorescence imaging and biodistribution assessment in vivo, DIR‐labelled nanosystem was prepared. Briefly, 2 µL of DIR stock solution (2 mM) was added to 1 mL of the PAHN. After stirring for 12 h, the DIR‐labelled nanosystem was finally obtained after dialyzing against deionized water using a dialysis bag (MWCO: 3500 Da) overnight to remove excess DIR. 4T1 tumor‐bearing mice (n = 3) were intravenously injected with DIR‐labelled (Ex/Em = 748 nm/780 nm) PAHN‐1 or PAHN‐2 at a dose of 2.4 µmol kg^−1. Fluorescence images were acquired at preinjection, and 0, 0.5, 1, 2, 6, 24 and 48 h postinjection by using a fluorescence imaging system (CRi Inc., USA). The tumor tissues and major organs were isolated and obtained for ex vivo imaging on the day of animal sacrifice. The corresponding fluorescence intensities were recorded."}, "[3]": {"system": "HUVECs", "assay": "CCK‐8 cytotoxicity against HUVECs", "assay_type": "cell-based, human", "conditions": "without US"}, "[4]": {"system": "inoblast L929", "assay": "CCK‐8 cytotoxicity against L929", "assay_type": "cell-based", "conditions": "without US"}, "[5]": {"system": "healthy mice", "assay": "Biosafety of PAHN in vivo (H&E, routine blood, blood biochemistry)", "conditions": "i.v. 2.4 µmol kg^−1, 1, 3, 7, 14, 28 d postinjection, n = 5", "source_text": "To investigate the short and long‐term biosafety of PAHN‐1 in vivo, PAHN‐1 at a dose of 2.4 µmol kg^−1 was intravenously injected into twenty five healthy mice that were sacrificed at predetermined time points (1, 3, 7, 14, and 28 d postinjection). Five healthy mice that were administrated with the saline solution served as the control group. The blood samples were then collected for biochemistry and routine blood examination. The main organs were stained with H&E."}}, "note": "Where a SMILES comes first, the peptide text is derived from it. The star is where a group is joined. X1 = O=C(c1cc(OCCCCCC(=O)*)cc(C(=O)c2ccc3ccc4cccc5ccc2c3c45)c1)c1ccc2ccc3cccc4ccc1c2c34"}
{"smiles": "CC(C)C[C@H](NC(=O)[C@@H](NC(=O)[C@H](Cc1ccccc1)NC(=O)[C@H](Cc1ccccc1)NC(=O)[C@H](Cc1ccccc1)NC(=O)[C@H](CS)NC(=O)CCCCCOc1cc(C(=O)c2ccc3ccc4cccc5ccc2c3c45)cc(C(=O)c2ccc3ccc4cccc5ccc2c3c45)c1)C(C)C)C(=O)N[C@@H](CCCCN)C(=O)N[C@@H](CCCCN)C(=O)N[C@@H](CCCCN)C(=O)N[C@@H](CC(=O)O)C(=O)N[C@@H](CCC(=O)O)C(=O)N[C@H](C(=O)N[C@@H](CC(=O)O)C(=O)N[C@@H](C)C(=O)N[C@@H](CCCCN)C(=O)N[C@@H](CCCNC(=N)N)C(=O)NCC(=O)N[C@@H](C)C(=O)N[C@@H](CCCNC(=N)N)C(=O)N[C@@H](CO)C(=O)N[C@H](C(=O)N[C@@H](C)C(=O)O)[C@@H](C)O)C(C)C", "note": "[PAHN-3] (X1-CFFFVLKKKDEVDAKRGARSTA-OH)", "values": [{"measurement": "survival of 4T1 cells", "setting": "[1]; CCK‐8", "result": "no evident change"}]}
{"smiles": "CC(C)C[C@H](NC(=O)[C@H](CCCCN)NC(=O)[C@H](C)NC(=O)[C@H](CC(C)C)NC(=O)[C@H](CCCCN)NC(=O)[C@H](CC(C)C)NC(=O)[C@@H](NC(=O)[C@H](Cc1ccccc1)NC(=O)[C@H](Cc1ccccc1)NC(=O)[C@H](Cc1ccccc1)NC(=O)[C@H](CS)NC(=O)CCCCCOc1cc(C(=O)c2ccc3ccc4cccc5ccc2c3c45)cc(C(=O)c2ccc3ccc4cccc5ccc2c3c45)c1)C(C)C)C(=O)N[C@@H](C)C(=O)N[C@@H](CCCCN)C(=O)N[C@@H](CC(=O)O)C(=O)N[C@@H](CCC(=O)O)C(=O)N[C@H](C(=O)N[C@@H](CC(=O)O)C(=O)N[C@@H](C)C(=O)N[C@@H](CCCCN)C(=O)N[C@@H](CC(=O)O)C(=O)NCC(=O)N[C@@H](C)C(=O)N[C@@H](CCC(=O)O)C(=O)N[C@@H](CO)C(=O)N[C@@H](Cc1c[nH]cn1)C(=O)N[C@@H](Cc1c[nH]cn1)C(=O)O)C(C)C", "note": "[PAHN-2] (X1-CFFFVLKLAKLAKDEVDAKDGAESHH-OH)", "values": [{"measurement": "ex vivo distribution in tumor and major organs", "setting": "[2]", "result": "tended to accumulate in the liver and spleen"}, {"measurement": "survival of 4T1 cells", "setting": "[1]; CCK‐8", "result": "no evident change"}]}
{"smiles": "CC(C)C[C@H](NC(=O)[C@H](CCCCN)NC(=O)[C@H](C)NC(=O)[C@H](CC(C)C)NC(=O)[C@H](CCCCN)NC(=O)[C@H](CC(C)C)NC(=O)[C@@H](NC(=O)[C@H](Cc1ccccc1)NC(=O)[C@H](Cc1ccccc1)NC(=O)[C@H](Cc1ccccc1)NC(=O)[C@H](CS)NC(=O)CCCCCOc1cc(C(=O)c2ccc3ccc4cccc5ccc2c3c45)cc(C(=O)c2ccc3ccc4cccc5ccc2c3c45)c1)C(C)C)C(=O)N[C@@H](C)C(=O)N[C@@H](CCCCN)C(=O)N[C@@H](CC(=O)O)C(=O)N[C@@H](CCC(=O)O)C(=O)N[C@H](C(=O)N[C@@H](CC(=O)O)C(=O)N[C@@H](C)C(=O)N[C@@H](CCCCN)C(=O)N[C@@H](CCCNC(=N)N)C(=O)NCC(=O)N[C@@H](C)C(=O)N[C@@H](CCCNC(=N)N)C(=O)N[C@@H](CO)C(=O)N[C@H](C(=O)N[C@@H](C)C(=O)O)[C@@H](C)O)C(C)C", "note": "[PAHN-1] (X1-CFFFVLKLAKLAKDEVDAKRGARSTA-OH)", "values": [{"measurement": "ex vivo distribution in tumor and major organs", "setting": "[2]", "result": "relatively greater tumor accumulation"}, {"measurement": "time of maximum fluorescence signal of the tumor region", "setting": "[2]", "result": 24, "unit": "h"}, {"measurement": "cell viability", "setting": "[1]; 4T1 cells, + US 3 W cm^−2, 4 min after 4 h treatment, 30, 60, 120 µM tested, CCK‐8, n = 3", "result": "less than 20%"}, {"measurement": "viability of cells", "setting": "[1]; 4T1 cells, without US, concentration of BP up to 120 µM, CCK‐8", "result": "higher than 80%"}, {"measurement": "cytotoxicity against HUVECs", "setting": "[3]", "result": "negligible cytotoxicity"}, {"measurement": "cytotoxicity against L929", "setting": "[4]", "result": "negligible cytotoxicity"}, {"measurement": "hematological indices (routine blood, blood biochemistry)", "setting": "[5]; compared to control", "result": "negligible variations"}, {"measurement": "histopathology of major organs (H&E)", "setting": "[5]", "result": "neither significant histopathological changes nor abnormal inflammatory responses"}]}
